Assay results reported in paper PMC10572780, “MucR from Sinorhizobium meliloti: New Insights into Its DNA Targets and Its Ability to Oligomerize” (International Journal of Molecular Sciences, 2023).

How the values were obtained:
rMucR (recombinant MucR) [1] = target: T1, rMucR (recombinant MucR) (Sinorhizobium meliloti 1021, UniProt P55323 1-143); test: competition; vs FAM-rem site3; 5-, 10-, 20-fold excess; does not effectively compete; 25 mM HEPES pH 7.9, 50 mM KCl, 6.25 mM MgCl2, 5% glycerol; 10 min on ice (plus 10 min on ice after competitor); 5% polyacrylamide gel, 0.5x TBE, room temperature, 200 V, 70 min; settings: protein: recombinant; tags: none (pET22b+, NdeI/XhoI, native stop codon in reverse primer); chain copies: 10
T1 sequence: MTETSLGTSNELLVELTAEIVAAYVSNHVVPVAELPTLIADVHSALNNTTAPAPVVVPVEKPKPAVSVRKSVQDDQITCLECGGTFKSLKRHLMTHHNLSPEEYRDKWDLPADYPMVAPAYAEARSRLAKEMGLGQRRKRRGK

rMucR (recombinant MucR) [2] = target: T1, rMucR (recombinant MucR); test: EMSA; 10 pmol DNA; 25 mM HEPES pH 7.9, 50 mM KCl, 6.25 mM MgCl2, 5% glycerol; 10 min on ice (plus 10 min on ice after competitor); 5% polyacrylamide gel, 0.5x TBE, room temperature, 200 V, 70 min; settings: protein: recombinant; tags: none (pET22b+, NdeI/XhoI, native stop codon in reverse primer); chain copies: 10
native MucR = target: T2, native MucR (Sinorhizobium meliloti 1021, UniProt P55323 2-143); test: EMSA; 25 mM HEPES pH 7.9, 50 mM KCl, 6.25 mM MgCl2, 5% glycerol; 10 min on ice (plus 10 min on ice after competitor); 5% polyacrylamide gel, 0.5x TBE, room temperature, 200 V, 70 min; settings: protein: native; tags: none
T2 sequence: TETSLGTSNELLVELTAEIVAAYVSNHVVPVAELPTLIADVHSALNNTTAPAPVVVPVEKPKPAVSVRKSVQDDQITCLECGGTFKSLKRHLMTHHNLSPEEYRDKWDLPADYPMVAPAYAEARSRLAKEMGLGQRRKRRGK

[3] = target: the molecule itself; test: SEC-MALS; samples at 1 mg/mL on Superdex 200 in the buffer of the final purification step, 0.5 mL/min; MiniDAWN Treos; higher-order oligomer, no monomer or lower-order oligomers seen
rMucR (recombinant MucR) [4] = target: T1, rMucR (recombinant MucR); test: EMSA; minimal length with detectable binding; 25 mM HEPES pH 7.9, 50 mM KCl, 6.25 mM MgCl2, 5% glycerol; 10 min on ice (plus 10 min on ice after competitor); 5% polyacrylamide gel, 0.5x TBE, room temperature, 200 V, 70 min; settings: protein: recombinant; tags: none (pET22b+, NdeI/XhoI, native stop codon in reverse primer); chain copies: 10
rMucR (recombinant MucR) [5] = target: T1, rMucR (recombinant MucR); test: EMSA; 20 pmol rMucR, 10 pmol DNA, no competitor; 25 mM HEPES pH 7.9, 50 mM KCl, 6.25 mM MgCl2, 5% glycerol; 10 min on ice (plus 10 min on ice after competitor); 5% polyacrylamide gel, 0.5x TBE, room temperature, 200 V, 70 min; settings: protein: recombinant; tags: none (pET22b+, NdeI/XhoI, native stop codon in reverse primer); chain copies: 10; label: FAM

B1: rem site3 mut2 (dsDNA)
DNA 1: CGCGCGGCCCCCGGCCGGCCGCCGGGGCCC
DNA 2: GGGCCCCGGCGGCCGGCCGGGGGCCGCGCG
- binding result (rMucR (recombinant MucR) [1]): no binding

B2: rem site3 (dsDNA)
DNA 1: CACGCAATTCTTAATCAACTATTAAAATCC
DNA 2: GGATTTTAATAGTTGATTAAGAATTGCGTG
- binding result (rMucR (recombinant MucR) [2]): binds

B3: ndvA upstream region oligonucleotide (dsDNA)
DNA 1: GATAATTCTTCATATCACGCCCGGTCTTGCAGGAAACCTGCAAAAACTCGGAGTCGAGGCATCAAGATAGCTAACGATGAATCAT
DNA 2: ATGATTCATCGTTAGCTATCTTGATGCCTCGACTCCGAGTTTTTGCAGGTTTCCTGCAAGACCGGGCGTGATATGAAGAATTATC
- binding result (native MucR): binds

B4: recombinant S. meliloti MucR (natural protein, Sinorhizobium meliloti 1021, UniProt P55323 1-143, looked up)
chain: MTETSLGTSNELLVELTAEIVAAYVSNHVVPVAELPTLIADVHSALNNTTAPAPVVVPVEKPKPAVSVRKSVQDDQITCLECGGTFKSLKRHLMTHHNLSPEEYRDKWDLPADYPMVAPAYAEARSRLAKEMGLGQRRKRRGK
notes: Expressed with 100 uM zinc sulfate; Oligomer by SEC-MALS corresponds to a decamer (9 to 12 protomers not excluded); also called rMucR; recombinant MucR; source: E. coli BL21(DE3), pET22b+, purified (cation exchange chromatography, size exclusion chromatography); copies: 10
- stoichiometry N [3]: 10

B5: rem site3 18 bp (dsDNA)
DNA 1: ATTCTTAATCAACTATTA
DNA 2: TAATAGTTGATTAAGAAT
- binding result (rMucR (recombinant MucR) [4]): binds

B6: rem site1 (dsDNA)
DNA 1: ATCACCTACTAGATATAGGCCCAAATCGGC
DNA 2: GCCGATTTGGGCCTATATCTAGTAGGTGAT
- binding result (rMucR (recombinant MucR) [2]): binds

B7: rem site2 (dsDNA)
DNA 1: CATCATGTTAGTGGTAAGGTTAACGATCAC
DNA 2: GTGATCGTTAACCTTACCACTAACATGATG
- binding result (rMucR (recombinant MucR) [2]): binds

B8: MucR purified from S. meliloti (natural protein, Sinorhizobium meliloti 1021, UniProt P55323 2-143, looked up)
chain: TETSLGTSNELLVELTAEIVAAYVSNHVVPVAELPTLIADVHSALNNTTAPAPVVVPVEKPKPAVSVRKSVQDDQITCLECGGTFKSLKRHLMTHHNLSPEEYRDKWDLPADYPMVAPAYAEARSRLAKEMGLGQRRKRRGK
notes: MucR from Sinorhizobium meliloti 1021, naturally expressed; 9 to 12 protomers not excluded; also called native MucR; naturally expressed MucR; source: endogenous, purified from S. meliloti 1021 (cation exchange chromatography, size exclusion chromatography); copies: 10
- stoichiometry N [3]: 10

B9: FAM-labeled rem site3 (dsDNA)
DNA 1: CACGCAATTCTTAATCAACTATTAAAATCC
DNA 2: GGATTTTAATAGTTGATTAAGAATTGCGTG
- binding result (rMucR (recombinant MucR) [5]): binds
